Test [1] relates to NK92 cells. The test can be described thus: IFN gamma secretion assay in NK92 cells (Example 10). It counts as cell-based, human. The conditions noted are these: IFNγ secretion, 1 ng/ml IL-12. How it is done:
The IFNγ-secretion stimulating activity of the unconjugated IL-18 variants and corresponding IL-18 immunocytokines was evaluated on NK92 cell line. The NK cell line NK-92 derived from a patient with lymphoma (ATCC, Cat #CRL-2407) was cultured in aMEM medium supplemented with 12.5% FCS, 12.5% horse serum (HS), 50 uM B-mercaptoEthanol, and 2 ng/ml of recombinant Human Interleukin-2 (IL-2).
On the day of experiment, cells were harvested and washed with aMEM medium without IL-2 and resuspended in medium (w/o IL-2) containing 1 ng/ml of recombinant human Interleukin-12 (SinoBiologicals, Cat #CT011-H08H). After counting, cells were seeded at 100 000 cells/well in a 384 well titer plate and incubated at 37° C./5% CO2. Sixteen 4-fold serial dilutions of IL-18 analytes were prepared in aMEM medium—1 ng/ml IL-12 and were added to the NK-92 cells. […]
After 16-20 h incubation at 37° C./5% CO2, 5 μl of supernatant were carefully transferred to a 384 microwells OPTIPlate (Perkin Elmer; Cat #6007270) and Interferon-gamma (IFNγ) levels measured using the Human IFNγ AlphaLISA Assay Kit (Perkin Elmer, Cat #AL217C). […] AlphaLisa signal was then measured on an Enspire plate reader (Perkin Elmer) using 680 and 615 nm as excitation and emission wavelengths respectively. Half maximal effective concentration (EC50) was calculated based on a variable slope, four parameter analysis using GraphPad PRISM software.

The test system of test [2] is parental PD-1negative NK-92 cells. The test can be described thus: IFN gamma secretion assay in parental PD-1 negative NK-92 cells (Example 17). Particulars: IFNγ secretion. It counts as cell-based, human. How it is done:
To show selectivity of the anti-PD1-IL18 immunocytokine (IC) for PD-1 positive cells, the NK-92 cell line was used to generate a PD-1 expressing cell line and furthermore, to measure IFN[…] release upon incubation with IL-18 variants and ICs.
On the day of experiment, parental PD-1negative and PD-1positive transduced cells were harvested and washed with PBS 1× and resuspended in medium (w/o IL-2) containing 1 ng/ml of recombinant human Interleukin-12 (SinoBiologicals, Cat #CT011-H08H). After counting, cells were seeded at 100 000 cells/well in a 384 well culture plate and incubated at 37° C./5% CO2. When indicated, cells were preincubated with anti-PD-1 antibody LZM-009 at 17 uM during 30 min at 37° C. […] The lowest concentration assessed was 0.8 fM.
After 16-20 h incubation at 37° C./5% CO2, 5 μl of supernatant were carefully transferred to a 384 microwell OptiPlate (Perkin Elmer; Cat #6007270) and Interferon-gamma (IFNγ) levels were measured using the Human IFNγ AlphaLISA Assay Kit (Perkin Elmer, Cat #AL217C). […] AlphaLISA signal was then measured on an Enspire plate reader (Perkin Elmer) using 680 and 615 nm as excitation and emission wavelengths respectively. Half maximal effective concentration (EC50) was calculated based on a variable slope, four parameter analysis using GraphPad PRISM software.

Test [3] deals with T1, human IL-18 Binding Protein (IL-18BP) (Homo sapiens, UniProt O95998).
T1 sequence (O95998 31-194): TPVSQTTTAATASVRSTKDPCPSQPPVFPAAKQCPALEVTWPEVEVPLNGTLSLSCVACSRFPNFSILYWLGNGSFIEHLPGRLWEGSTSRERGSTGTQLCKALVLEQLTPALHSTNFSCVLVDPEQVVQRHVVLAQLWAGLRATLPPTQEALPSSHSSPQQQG
Put plainly: IL-18 Binding Protein alphaLISA assay (Example 12). Particulars: human IL-18BP. How it is done:
Wild type or modified IL-18 polypeptides samples were diluted at 5.6 μM in a solution of 1× alphaLISA Immunoassay Buffer provided in the alphaLISA IFNγ Detection kit and were diluted applying 3-fold serial dilutions down to […] in 384 deep well plates. A solution of 10 ng/ml of human IL-18BP-His was prepared with 1×alphaLISA Immunoassay Buffer. IL-18/IL-18BP complex formation was performed incubating 30 μl of IL-18BP solution to IL-18 sample titrations for 1 h at 20° C. IL-18BP standard was prediluted from stock solution supplied in alphaLISA IFNγ Detection kit at 100 ng/ml with 1×alphaLISA Buffer and titration prepared from applying 2-fold serial dilutions. The following solutions were prepared: a 50 μg/ml solution of anti-IL-18BP alphaLISA Acceptor beads, a 5 nM solution of biotinylated anti-IL18BP antibody and a 80 μg/ml light-protected solution of Streptavidin Donor beads in 1×alphaLISA Immunoassay Buffer. […]
5 μl of Biotinylated anti-IL-18BP antibody were added, followed by a short centrifugation step at 150 g, and incubated for 60 minutes at 20° C. under shaking at 750 rpm. […] AlphaLisa signal was then measured on an Enspire plate reader (Perkin Elmer) using 680 and 615 nm as excitation and emission wavelengths respectively. […]
On the technique in general: Bead proximity is the source of the signal in Alpha formats.

The term EC50 denotes the concentration at which the effect is half-maximal. As a reminder, the Kd is the concentration at which binding is half-saturated. The low end stands for a tighter complex, the high end for a looser complex.

B1: SEQ ID NO: 30: IL-18 polypeptide: E6K, V11I, C38A, K53A, T63A, C76A, C127A (protein)
chain: YFGKLKSKLSIIRNLNDQVLFIDQGNRPLFEDMTDSDARDNAPRTIFIISMYADSQPRGMAVAISVKCEKISTLSAENKIISFKEMNPPDNIKDTKSDIIFFQRSVPGHDNKMQFESSSYEGYFLAAEKERDLFKLILKKEDELGDRSIMFTVQNED
With B1, the EC50 in test [1] was found to be 2 pM; in test [2] it was 2.4 pM. This molecule gave a Kd in test [3] of 24600 pM.

These data come from patent publication US20250186597A1, “TARGETED IMMUNE ACTIVATION WITH IL-18 IMMUNOCYTOKINES” (BRIGHT PEAK THERAPEUTICS AG, priority 2023, published 2025).
